B1: APOL1 (peptide)
chain: EGAKSETAEELKKVAQELEEKLNILN
B2: SMARCAL1 (peptide)
chain: TGKDRLTAGLINIVSFDLLSKLEKQL
B3: TTC30A (peptide)
chain: YYSSRQYASALKHIAEIIERGIRQHP
B4: C9orf100 (peptide)
chain: HQQLTRAARLISETAQRVHTIGQKQK
B5: RDH13 (peptide)
chain: PSTYLAVAEELADVSGKYFDGLKQKA
B6: CYP3A4 (peptide)
chain: SGKLKEMVPIIAQYGDVLVRNLRREA
B7: ASB16 (peptide)
chain: RGLEQHVALYLEHGADVGLRTSQGET
B8: KLC3 (peptide)
chain: GPEHPAVAATLNNLAVLYGKRGRYRE
B9: GFRA4 (peptide)
chain: RLRSEYVAQCLGRAAQGGCPRARCRR
B10: RB1CC1 (peptide)
chain: LHNLVKAAQSLDEMSQTITDLLSEQK
B11: mTOR (peptide)
chain: GELAQVSGLEDRKWVDELFIIIMDML
B12: UBA6 (peptide)
chain: NVGCQQDSEELLKLATSISETLEEKP
B13: C17orf103 (peptide)
chain: AYRGRGIAKHLAKALLDFVVEEDLKA
B14: DFNA5 (peptide)
chain: LQIIPTLCHLLRALSDDGVSDLEDPT
B15: MAGEB2 (peptide)
chain: IKKSVTKGEMDKIVGKRFREHFPEIL
B16: TFDP1 (peptide)
chain: NRKGEKNGKGLRHFLMKVCEKVQRKG
B17: CYP46A1 (peptide)
chain: LREVRESIRFDRQVGRDWVQRRREAL
B18: RAPGEF2 (peptide)
chain: FEKLRMIAKEIRHVLRMASVNMDPAL
B19: SYAP1 (peptide)
chain: LHQAKDFGNYLFNFASAATKKITESV
B20: EVC (peptide)
chain: EARVLEEASRLEEEAQQTRLQLQQRL
B21: LMO2 (peptide)
chain: CLSCDLCGCRDGEVGRRLYYKLGRKL
B22: NOL8 (peptide)
chain: KYDPSKYCHNLKKILEDFSNTIPISS
B23: OTOF (peptide)
chain: DFMGRTFAKPLVKMLDEAYCPPRFPP
B24: CGNL1 (peptide)
chain: PFGLQGNSEYLIEFSRNLGKSSEHLL
B25: RIMBP3C (peptide)
chain: RAELTGLARRLADRARELQETNLRAV
B26: C17orf103 (peptide)
chain: AYRGRGIAKHDAKAALDFVVEEDLKA
B27: CCNH (peptide)
chain: RYPILENPEIDRKTADDFLNRIALTD
B28: DYNC2H1 (peptide)
chain: PKELEGYIQKLQNAAERLATENRKLR
B29: MYO15A (peptide)
chain: YGRLRPRARSLSKASTAINWLTKKFL
B30: PCSK6 (peptide)
chain: GTKSQLLAKRLLDLSNEGFTNWEFMT
B31: SMG6 (peptide)
chain: DLQIYQPGRRLQTVSKESASRVEEEE
B32: TRIM58 (peptide)
chain: KSRLVQQSKALKELLDELQERCQRPA
B33: TRPM7 (peptide)
chain: FERVEQMCIQIKEVLDRVNYIKRSLQ
B34: PLB1 (peptide)
chain: RVIPHDGAEDLWIQAQELVRNMKENL
B35: TLR5 (peptide)
chain: PEDLQDVGWFLHKLLQQILKKEKEKK
B36: NUB1 (peptide)
chain: TDENKKVGLALKDLLKQYSDRLECCE
B37: MTA1 (peptide)
chain: RQAFYLHTTKLTRILRRLCREILRPW
B38: NCOA6 (peptide)
chain: FNIPREAAERLRILAQSNNQQLRDLG
B39: BCL2A1 (peptide)
chain: GSGPSKTSRVLQNVAFSVQKEVEKNL
B40: DHX40 (peptide)
chain: QFEIEKSCELLFQMAESVDYDYDVQD
B41: TFDP1 (peptide)
chain: NRKGEKNGKGDRHFSMKVCEKVQRKG
B42: CYP46A1 (peptide)
chain: LREVRESIRFLRQVLRDWVQRRREAL
B43: RNF213 (peptide)
chain: LANVTEDAKRLIAVADSVLTKVVGDL
B44: ARHGAP4 (peptide)
chain: EVLAGPLAQRLSHILEDVGRLVKKSR
B45: OTUD7B (peptide)
chain: KKRADSVANKLGSFGKTLGSKLKKNM
B46: NBEAL2 (peptide)
chain: EVRSSQFARKDWRSSRRISQVSSGET
B47: UBE2C (peptide)
chain: SDNLFKWVGTIHGAAGTVYEDLRYKL
B48: BCAP29 (peptide)
chain: WLVLRRLVTLITQLAKELSNKGVLKT
B49: NOL8 (peptide)
chain: KYDPSKYCHNDKKIGEDFSNTIPISS
B50: MTA1 (peptide)
chain: RQAFYLHTTKDTRIARRLCREILRPW
B51: ANO2 (peptide)
chain: GSIAKKFSAALQKLSSHLQPRVPEHS
B52: PLCB1 (peptide)
chain: REHIKLLIQKLTDVAEECQNNQLKKL
B53: LMO2 (peptide)
chain: CLSCDLCGCRLGEVLRRLYYKLGRKL

How the values were obtained:
Mcl-1, Q07820 = target: T1, Mcl-1, Q07820; test: peptide SPOT array, c-Myc-tagged receptor at 1 uM or 100 nM, anti-c-Myc-Cy3
T1 chain: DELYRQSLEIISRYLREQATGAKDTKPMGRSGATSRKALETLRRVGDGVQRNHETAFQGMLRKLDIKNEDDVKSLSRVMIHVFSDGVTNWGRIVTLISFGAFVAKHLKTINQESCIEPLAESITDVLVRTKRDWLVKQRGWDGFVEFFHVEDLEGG

Bcl-xL, Q07817 = test: as above
Bcl-xL, Q07817, sequence (Q07817 1-209): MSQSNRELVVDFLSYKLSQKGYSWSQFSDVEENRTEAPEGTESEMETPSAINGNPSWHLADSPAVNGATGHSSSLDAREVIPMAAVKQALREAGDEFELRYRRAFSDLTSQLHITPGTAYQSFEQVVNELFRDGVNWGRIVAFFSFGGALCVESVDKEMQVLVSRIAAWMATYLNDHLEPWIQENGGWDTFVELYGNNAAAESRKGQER

Row | Binder | SPOT signal as a fraction of Bim BH3's signal on the same receptor and array (Mcl-1, Q07820) | SPOT signal as a fraction of Bim BH3's signal on the same receptor and array (Bcl-xL, Q07817)
1 | B1 | 0.01 | –
2 | B2 | 0.02 | –
3 | B3 | 0.08 | –
4 | B4 | 0.57 | –
5 | B5 | 0.05 | –
6 | B6 | 0.07 | –
7 | B7 | 0.02 | –
8 | B8 | 0.28 | –
9 | B9 | 0.8 | –
10 | B10 | – | 0.03
11 | B11 | – | 0.02
12 | B12 | – | 0.02
13 | B13 | – | 0.17
14 | B14 | – | 0.03
15 | B15 | – | 0.4
16 | B16 | – | 0.42
17 | B17 | – | 1.14
18 | B18 | – | 0.09
19 | B19 | – | 0.21
20 | B20 | – | 0.02
21 | B21 | – | 1.08
22 | B22 | – | 0.28
23 | B23 | – | 0.17
24 | B24 | – | 0.03
25 | B25 | – | 0.22
26 | B26 | – | 0.21
27 | B27 | – | 0.02

Row | Binder | SPOT signal as a fraction of Bim BH3's signal on the same receptor and array (Mcl-1, Q07820) | SPOT signal as a fraction of Bim BH3's signal on the same receptor and array (Bcl-xL, Q07817)
28 | B28 | – | 0.09
29 | B29 | – | 1.39
30 | B30 | – | 0.03
31 | B31 | – | 0.03
32 | B32 | – | 0.11
33 | B33 | – | 0.18
34 | B34 | – | 0.03
35 | B35 | – | 0.09
36 | B36 | – | 0.03
37 | B37 | – | 0.85
38 | B38 | – | 0.08
39 | B39 | – | 0.06
40 | B40 | – | 0.02
41 | B41 | – | 0.47
42 | B42 | – | 0.44
43 | B43 | – | 0.03
44 | B44 | – | 0.19
45 | B45 | – | 0.58
46 | B46 | – | 0.92
47 | B47 | – | 0.03
48 | B48 | – | 0.35
49 | B49 | – | 0.08
50 | B50 | – | 1.26
51 | B51 | – | 0.11
52 | B52 | – | 0.05
53 | B53 | – | 0.54

From article PMC4072508, “Genome-Wide Prediction and Validation of Peptides That Bind Human Prosurvival Bcl-2 Proteins” (PLoS Computational Biology, 2014)
